Data from US20090214427A1, “Novel peptides” (Licentia OY, priority 2004, published 2009).
Blank lines part the entries; values can stand above or below the substance they belong to. Positions of bridges follow the written chain, without caps; N, C: chain ends. No end group written: not given here.

What was measured:
hK2 [1] = target: T1, hK2 (Homo sapiens, UniProt P20151); assay: Effect of the peptides on the enzyme activity of hK2 (chromogenic substrate S-2302); type: biochemical; details: for inhibition (percent inhibition of hK2): enzymatic activity of hK2, chromogenic substrate, 405 nm; for inhibition of hK2 enzyme activity: 0.17 μM hK2, 100-fold molar excess of peptide; for effect on the enzyme activity of hK2: incubation of hK2 with synthetic peptide (FIG. 2)
T1 construct: made in house
T1 sequence (P20151 25-261): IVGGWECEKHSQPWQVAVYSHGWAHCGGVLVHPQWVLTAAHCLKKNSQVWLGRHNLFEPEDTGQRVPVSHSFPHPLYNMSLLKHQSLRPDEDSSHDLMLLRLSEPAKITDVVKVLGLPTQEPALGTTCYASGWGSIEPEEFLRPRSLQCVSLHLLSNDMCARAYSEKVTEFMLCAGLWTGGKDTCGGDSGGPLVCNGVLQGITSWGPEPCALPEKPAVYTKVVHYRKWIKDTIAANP
Protocol: “Inhibition”, as used in the present context, stands for an inhibitory action on the proteolytic activity of hK2.
(§1) The effect of the peptides on the enzyme activity of hK2 was studied by using the chromogenic substrate S-2302 (H-D-Pro-Phe-Arg-pNA). HK2 (0.17 μM) was incubated with a 100-1000-fold molar excess of synthetic peptides in 20 mM Tris-buffer pH 8.0 containing 0.1% BSA for 30 minutes at room temperature. After addition of the substrate to a final concentration of 0.2 mM the absorbance was monitored at 405 nm at 5-10 min intervals for 1 h on a Victor 1420 Multilabel fluorometer (PerkinElmer-Wallac, Turku, Finland)

trypsin 2 = target: T2, trypsin 2 (Homo sapiens, UniProt P07478); assay: Specificity: effect on enzyme activity of human trypsin 2 (substrate S-2222); type: biochemical
T2 construct: made in house
T2 sequence (P07478 24-247): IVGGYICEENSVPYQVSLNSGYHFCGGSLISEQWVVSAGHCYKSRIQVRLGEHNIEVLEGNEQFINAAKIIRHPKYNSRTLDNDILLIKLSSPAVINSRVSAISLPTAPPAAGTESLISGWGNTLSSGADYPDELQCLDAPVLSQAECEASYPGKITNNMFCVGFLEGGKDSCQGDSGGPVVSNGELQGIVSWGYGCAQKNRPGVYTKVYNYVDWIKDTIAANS
Protocol: as §1
(§2) The specificity of the peptides was analyzed by studying their effect on the activity of other serine proteases including α-chylotrypsin, bovine trypsin, human trypsin 1, trypsin 2 and trypsin 3, urokinase, thrombin, plasmin, plasma kallikrein and PSA. The assay was as described above for hK2 except that the substrate for PSA and α-chymotrypsin was S-2586 (MeO-Suc-Arg-Pro-Tyr-pNA)(Chromogenix), S-2444 for urokinase, S-2238 for thrombin, S-2403 for plasmin, S-2302 for plasma kallikrein and that for various forms of trypsin was S-2222 (CO-Ile-Glu-(OR)-Gly-Arg-pNA)(Chromogenix).

hK2 [2] = target: T1, hK2; assay: Cross-inhibition test: inhibition of phage binding to captured hK2 by synthetic peptides (IFMA); details: synthetic peptide 5 μM, FIG. 1
Protocol: The phage IFMA was performed essentially as described (Wu, Leinonen et al. 2000). In this assay, 50 ng of hK2 in 200 μL of assay buffer was captured onto wells coated with MAb 5E4. After washing, 2.5 μL of phage (10^8-10^9 infectious particles) and 200 μL assay buffer were added to wells. After incubation for 1 h, the wells were washed and filled with 200 μL of assay buffer containing 100 ng Eu-labeled anti-phage polyclonal antibody recognizing the M13 coat protein of the phage. After incubation for 60 min, the wells were washed 4 times, and enhancement solution (Perkin Elmer-Wallac) was added. The fluorescence was quantified with a Victor fluorometer in time resolved mode (Perkin Elmer-Wallac).
The relative binding sites of the peptides on hK2 were mapped by competition experiments with chemically synthesized and phage peptides. The protocol was based on the IFMA method described above except that phages and the synthetic peptides were reacted together with hK2. Briefly, each of the synthetic peptides at 5 μM concentration was added into the wells in which hK2 had been captured by MAb 5E4. After incubation for 30 min each phage was added. After 1 h incubation, the wells were washed and the assay was as described above for IFMA.

bovine trypsin = target: T3, bovine trypsin (Bos taurus, UniProt P00760); assay: Specificity: effect on enzyme activity of bovine trypsin (substrate S-2222); type: biochemical
T3 construct: purchased Athens Research and Technology, Athens, Ga., USA
T3 sequence (P00760 24-246): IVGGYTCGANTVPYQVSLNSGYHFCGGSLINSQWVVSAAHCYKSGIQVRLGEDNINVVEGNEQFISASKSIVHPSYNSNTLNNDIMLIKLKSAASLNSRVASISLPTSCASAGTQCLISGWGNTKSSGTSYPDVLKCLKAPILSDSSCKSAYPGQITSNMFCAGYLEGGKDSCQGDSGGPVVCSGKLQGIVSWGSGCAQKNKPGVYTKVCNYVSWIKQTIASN
Protocol: as §1, §2

plasma kallikrein = target: T4, plasma kallikrein (Homo sapiens, UniProt P03952); assay: Specificity: effect on enzyme activity of plasma kallikrein (substrate S-2302); type: biochemical
T4 construct: Human plasmin, thrombin and plasma kallikrein were from Sigma; purchased Sigma
T4 sequence (P03952 20-390 partner limits assumed): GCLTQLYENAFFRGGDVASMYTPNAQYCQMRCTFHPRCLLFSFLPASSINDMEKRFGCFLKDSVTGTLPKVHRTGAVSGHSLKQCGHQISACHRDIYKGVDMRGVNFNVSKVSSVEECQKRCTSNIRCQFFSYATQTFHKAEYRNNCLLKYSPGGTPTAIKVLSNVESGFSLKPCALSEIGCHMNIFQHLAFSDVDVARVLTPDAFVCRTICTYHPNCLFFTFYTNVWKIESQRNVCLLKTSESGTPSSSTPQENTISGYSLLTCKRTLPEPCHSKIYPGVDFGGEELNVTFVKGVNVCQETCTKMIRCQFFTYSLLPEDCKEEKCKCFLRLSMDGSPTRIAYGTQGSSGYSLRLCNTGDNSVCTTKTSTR
T4 sequence (P03952 391-638 limits assumed): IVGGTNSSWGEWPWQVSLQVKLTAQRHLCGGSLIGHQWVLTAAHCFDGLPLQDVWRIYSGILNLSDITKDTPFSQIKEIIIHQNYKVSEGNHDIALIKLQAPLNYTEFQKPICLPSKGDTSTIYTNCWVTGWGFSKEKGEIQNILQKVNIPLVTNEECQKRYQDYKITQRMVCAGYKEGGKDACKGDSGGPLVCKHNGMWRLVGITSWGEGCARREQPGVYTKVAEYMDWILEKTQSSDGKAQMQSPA
Protocol: as §1, §2

human trypsin 1 = target: T5, human trypsin 1 (Homo sapiens, UniProt P07477); assay: Specificity: effect on enzyme activity of human trypsin 1 (substrate S-2222); type: biochemical
T5 construct: made in house
Protocol: as §1, §2

PSA = target: T6, PSA (Homo sapiens, UniProt P07288); assay: Specificity: effect on enzyme activity of PSA (substrate S-2586); type: biochemical
T6 construct: PSA was purified from human seminal plasma as described (Zhang et al. 1995); from tissue; host or cells: human seminal plasma
T6 sequence (P07288 25-261): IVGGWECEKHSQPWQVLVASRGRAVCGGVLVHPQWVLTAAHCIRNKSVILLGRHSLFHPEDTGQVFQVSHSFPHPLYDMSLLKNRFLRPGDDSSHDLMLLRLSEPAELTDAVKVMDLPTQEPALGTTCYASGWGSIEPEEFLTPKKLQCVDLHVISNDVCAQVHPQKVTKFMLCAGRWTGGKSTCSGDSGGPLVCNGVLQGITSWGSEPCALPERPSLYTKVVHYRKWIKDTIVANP
Protocol: as §1, §2

trypsin 3 = target: T7, trypsin 3 (Homo sapiens, UniProt P35030); assay: Specificity: effect on enzyme activity of human trypsin 3 (substrate S-2222); type: biochemical
T7 construct: made in house
T7 sequence (P35030 1-304): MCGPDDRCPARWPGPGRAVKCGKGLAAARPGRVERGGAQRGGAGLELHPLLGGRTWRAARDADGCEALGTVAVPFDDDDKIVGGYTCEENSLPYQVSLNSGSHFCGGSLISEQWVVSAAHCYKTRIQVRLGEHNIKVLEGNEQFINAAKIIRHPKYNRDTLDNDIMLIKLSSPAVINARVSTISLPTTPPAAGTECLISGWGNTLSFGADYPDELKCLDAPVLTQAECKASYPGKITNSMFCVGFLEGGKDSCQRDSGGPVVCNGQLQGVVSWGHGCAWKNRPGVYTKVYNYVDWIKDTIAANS
Protocol: as §1, §2

α-chymotrypsin = assay: Specificity: effect on enzyme activity of α-chymotrypsin (substrate S-2586); type: biochemical
Protocol: as §1, §2

thrombin = target: T8, thrombin (Homo sapiens, UniProt P00734); assay: Specificity: effect on enzyme activity of thrombin (substrate S-2238); type: biochemical
T8 construct: Human plasmin, thrombin and plasma kallikrein were from Sigma; purchased Sigma
Protocol: as §1, §2

urokinase = urokinase (Homo sapiens, UniProt P00749); assay: Specificity: effect on enzyme activity of urokinase (substrate S-2444); type: biochemical
Protocol: as §1, §2

plasmin = target: T9, plasmin (Homo sapiens, UniProt P00747); assay: Specificity: effect on enzyme activity of plasmin (substrate S-2403); type: biochemical
T9 construct: Human plasmin, thrombin and plasma kallikrein were from Sigma; purchased Sigma
T9 sequence (P00747 97-580 partner limits assumed): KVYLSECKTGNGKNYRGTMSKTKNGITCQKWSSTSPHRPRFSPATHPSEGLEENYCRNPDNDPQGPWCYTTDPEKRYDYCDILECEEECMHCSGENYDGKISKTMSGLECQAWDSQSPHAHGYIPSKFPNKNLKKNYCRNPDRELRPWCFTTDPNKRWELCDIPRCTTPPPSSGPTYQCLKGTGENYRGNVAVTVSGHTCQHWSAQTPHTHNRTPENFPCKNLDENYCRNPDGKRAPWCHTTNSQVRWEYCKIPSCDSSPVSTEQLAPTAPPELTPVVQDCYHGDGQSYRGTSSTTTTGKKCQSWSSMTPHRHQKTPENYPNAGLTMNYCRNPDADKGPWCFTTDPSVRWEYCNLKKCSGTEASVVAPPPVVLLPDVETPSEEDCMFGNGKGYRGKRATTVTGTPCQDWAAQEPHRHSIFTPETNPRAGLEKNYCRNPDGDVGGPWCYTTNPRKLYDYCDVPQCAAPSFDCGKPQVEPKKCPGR
T9 sequence (P00747 581-810 limits assumed): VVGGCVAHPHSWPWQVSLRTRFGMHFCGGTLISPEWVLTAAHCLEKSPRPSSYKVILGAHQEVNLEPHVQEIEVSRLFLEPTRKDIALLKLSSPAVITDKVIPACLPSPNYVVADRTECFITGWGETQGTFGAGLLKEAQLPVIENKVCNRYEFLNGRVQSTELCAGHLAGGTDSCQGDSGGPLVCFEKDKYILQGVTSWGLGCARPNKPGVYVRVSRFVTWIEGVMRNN
Protocol: as §1, §2

hK2 [3] = target: T1, hK2; assay: Effect of the peptides on the enzyme activity of hK2 (chromogenic substrate S-2302); type: biochemical; details: S-2302 200 μM, 0.17 μM hK2, 0-400 μM peptide; read-out: IC50 for hK2 inhibition

inhibition (percent inhibition of hK2) (hK2 [1]): 79%
Substance: 55 (SRFKVWWAAG) [compound 55]

effect on activity of human trypsin 2 (trypsin 2): no inhibition
inhibition of the binding of the phage carrying the corresponding peptide (hK2 [2]): inhibited efficiently
effect on activity of bovine trypsin (bovine trypsin): no inhibition
effect on activity of plasma kallikrein (plasma kallikrein): no inhibition
effect on activity of human trypsin 1 (human trypsin 1): no inhibition
effect on activity of PSA (PSA): no inhibition
effect on activity of human trypsin 3 (trypsin 3): no inhibition
effect on activity of α-chymotrypsin (α-chymotrypsin): no inhibition
inhibition of hK2 enzyme activity (hK2 [1]): slight inhibition
effect on the enzyme activity of hK2 (hK2 [1]): significant reduction
effect on activity of thrombin (thrombin): no inhibition
effect on activity of urokinase (urokinase): no inhibition
effect on activity of plasmin (plasmin): no inhibition
Substance: PARRPFPVTA [HK2p03]

inhibition (percent inhibition of hK2) (hK2 [1]): 58%
Substance: 31 (GPARRPFPVTAG) [compound 31]

effect on activity of human trypsin 2 (trypsin 2): no inhibition
inhibition of the binding of the phage carrying the corresponding peptide (hK2 [2]): inhibited efficiently
effect on activity of bovine trypsin (bovine trypsin): no inhibition
effect on activity of plasma kallikrein (plasma kallikrein): no inhibition
effect on activity of human trypsin 1 (human trypsin 1): no inhibition
effect on activity of PSA (PSA): no inhibition
effect on activity of human trypsin 3 (trypsin 3): no inhibition
effect on activity of α-chymotrypsin (α-chymotrypsin): no inhibition
inhibition of hK2 enzyme activity (hK2 [1]): slight inhibition
effect on the enzyme activity of hK2 (hK2 [1]): significant reduction
effect on activity of thrombin (thrombin): no inhibition
effect on activity of urokinase (urokinase): no inhibition
effect on activity of plasmin (plasmin): no inhibition
Substance: SRFKVWWAAG-OH [HK2p01, SRFKVWWAAG]

inhibition (percent inhibition of hK2) (hK2 [1]): 79%
Substance: 69 (SRFKVWWG) [compound 69]

inhibition (percent inhibition of hK2) (hK2 [1]): 27%
Substance: 57 (SRFKVWWAAG) [compound 57]

effect on activity of human trypsin 2 (trypsin 2): no inhibition
inhibition of the binding of the phage carrying the corresponding peptide (hK2 [2]): inhibited efficiently
effect on activity of bovine trypsin (bovine trypsin): no inhibition
effect on activity of plasma kallikrein (plasma kallikrein): no inhibition
effect on activity of human trypsin 1 (human trypsin 1): no inhibition
effect on activity of PSA (PSA): no inhibition
effect on activity of human trypsin 3 (trypsin 3): no inhibition
effect on activity of α-chymotrypsin (α-chymotrypsin): no inhibition
inhibition of hK2 enzyme activity (hK2 [1]): slight inhibition
effect on the enzyme activity of hK2 (hK2 [1]): significant reduction
effect on activity of thrombin (thrombin): no inhibition
effect on activity of urokinase (urokinase): no inhibition
effect on activity of plasmin (plasmin): no inhibition
Substance: AARRPFPAPS [HK2p02]

IC50 (hK2 [3]): 2.2 µM
type of inhibition of hK2 (hK2 [1]; Lineweaver-Burke Plot): competitive inhibitor
Substance: ARFKVWWAAG [SEQ ID NO 56, A, R ,F, K, V, W, W, A, A, G]

inhibition (percent inhibition of hK2) (hK2 [1]): 49%
Substance: 15 (GPARRPFPVTAG) [compound 15]

inhibition of the binding of the phage carrying the corresponding peptide (hK2 [2]): not inhibited
Substance: FRTCLRSWACM [HK2p05]

inhibition (percent inhibition of hK2) (hK2 [1]): 78%
Substance: 63 (SRFKVWWAAG) [compound 63]

inhibition (percent inhibition of hK2) (hK2 [1]): 85%
Substance: 64 (SRFKVWWAAG) [compound 64]

effect on the enzyme activity of hK2 (hK2 [1]): did not show any effect
Substance: CFRQGCWVIT [HK2p04]

inhibition (percent inhibition of hK2) (hK2 [1]): 82%
Substance: 73 (SRFKVWWG) [compound 73]

inhibition of the binding of the phage carrying the corresponding peptide (hK2 [2]): inhibited efficiently
effect on the enzyme activity of hK2 (hK2 [1]): did not show any effect
Substance: CYRMPTCMQRD [HK2p06]

effect of cyclic peptides on hK2 protease activity (hK2 [1]; FIG. 3): slight inhibitory effect
Substance: C3AARRPAPAPCG (CAARRPAPAPCG; disulfide 1-11 (inferred)) [BTK144-18c]
